From FireProtDB (doi:10.1021/bi0015717)

Settings: Homo sapiens; pH 2.7; Thermal; DSC; glycine-HCl 0.05 M; reversible: yes; whole UniProt chain shown

B1: Lysozyme C wild type, P61626 (protein)
chain: MKALIVLGLVLLSVTVQGKVFERCELARTLKRLGMDGYRGISLANWMCLAKWESGYNTRATNYNAGDRSTDYGIFQINSRYWCNDGKTPGAVNACHLSCSALLQDNIADAVACAKRVVRDPQGIRAWVAWRNRCQNRDVRQYVQGCGV
Tm: 64.9 °C
heat capacity change of unfolding: 1.58 kcal/mol/K
unfolding enthalpy (calorimetric): 114 kcal/mol
